Results taken from patent US20080214408A1.

Key:
[1] = molecular target: GFP-Tus-His6 fusion protein (E. coli) (UniProt P16525); assay: protein microarray, fluorescence; fusion protein made in situ and held on plasmid with wild-type Ter site, detected with Cy3-labeled anti-his antibody
[2] = molecular target: GFP-Tus-His6 fusion protein (E. coli) (UniProt P16525); assay: protein microarray, fluorescence; fusion protein made in situ and held on plasmid with wild-type Ter site, detected with Cy5-labeled anti-his antibody
[3] = molecular target: GFP-Tus-His6 fusion protein (E. coli) (UniProt P16525); assay: protein microarray, fluorescence; fusion protein made in situ and held on plasmid with mutant Ter site (SEQ ID NO: 12), detected with Cy3-labeled anti-his antibody
[4] = molecular target: GFP-Tus-His6 fusion protein (E. coli) (UniProt P16525); assay: protein microarray, fluorescence; fusion protein made in situ and held on plasmid with mutant Ter site (SEQ ID NO: 12), detected with Cy5-labeled anti-his antibody

Substance “monoclonal antibody to the poly-his tag (Sigma-Aldrich), labeled with Cy3 or Cy5” has a Cy3 Signal Intensity (Background subtracted) (arbitrary units) [1] of 20600, a Cy5 Signal Intensity (Background subtracted) (arbitrary units) [2] of 14000 and a Cy3 Signal Intensity (Background subtracted) (arbitrary units) [3] of 10900. For the same substance, the Cy5 Signal Intensity (Background subtracted) (arbitrary units) [4] was 4740.
